Test results reported in paper PMC8571082, “Structural and thermodynamical insights into the binding and inhibition of FIH-1 by the N-terminal disordered region of Mint3” (The Journal of Biological Chemistry, 2021).
Numbering of substitutions follows the chain as printed. Each block holds one binder with its values, some of them ahead of it.

Assays:
Details in all cases: both partners purified
[1] = target: T1, factor inhibiting HIF-1 (FIH-1), full-length (human, UniProt Q9NWT6 1-349); experiment: ITC; MicroCal iTC200, 25 °C; 150 μM Mint3 in the syringe, 30 μM FIH-1 in the cell, 25 injections of 1.5 μl; 35 mM Na-phosphate pH 7.5, 300 mM NaCl, 500 μM αKG; single set of sites model; for Figure 4 also in the absence of αKG and/or with EDTA
T1 construct: Dimer by SEC and SEC-MALS; The TEV site ENLYFQ lay between the His6 tag and FIH-1; also called FIH-1 WT; source: E. coli BL21 (DE3), purified (Ni-NTA, TEV cleavage, SEC); not shown: His6, N-terminal, cleaved
T1 sequence (Q9NWT6 whole entry): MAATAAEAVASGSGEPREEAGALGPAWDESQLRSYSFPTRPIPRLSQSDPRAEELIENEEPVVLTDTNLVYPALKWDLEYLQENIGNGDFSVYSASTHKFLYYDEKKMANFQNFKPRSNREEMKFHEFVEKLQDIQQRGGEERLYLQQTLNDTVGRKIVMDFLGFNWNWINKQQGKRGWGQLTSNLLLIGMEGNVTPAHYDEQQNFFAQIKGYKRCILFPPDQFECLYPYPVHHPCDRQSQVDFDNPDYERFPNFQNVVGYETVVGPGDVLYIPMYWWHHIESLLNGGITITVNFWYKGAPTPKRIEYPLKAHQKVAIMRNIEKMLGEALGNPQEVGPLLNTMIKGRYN

[2] = target: T2, factor inhibiting HIF-1 (FIH-1) (human, UniProt Q9NWT6 1-349); experiment: ITC; Mint3 construct in the syringe (150 μM, 25 injections of 1.5 μl) titrated into 30 μM FIH-1 in the cell; 25 °C; 35 mM Na-phosphate pH 7.5, 300 mM NaCl, 500 μM αKG; single set of sites model
T2 construct: N-terminal His6 tag and TEV site (ENLYFQ) cleaved with TEV protease; Dimer by SEC and SEC-MALS (about 80 kDa); also called FIH-1 WT; source: E. coli BL21 (DE3), purified (Ni-NTA, TEV cleavage, SEC); not shown: His6, N-terminal, cleaved
T2 sequence (Q9NWT6 whole entry): as above

FIH-1 E250A = target: T3, FIH-1 E250A (human, UniProt Q9NWT6 1-349, Glu250 replaced with Ala); experiment: ITC; MicroCal iTC200, 25 °C; 150 μM Mint3 in the syringe, 30 μM FIH-1 in the cell, 25 injections of 1.5 μl; 35 mM Na-phosphate pH 7.5, 300 mM NaCl, 500 μM αKG; single set of sites model; for Figure 4 also in the absence of αKG and/or with EDTA
T3 construct: also called Glu250 replaced with Ala (negative control); source: E. coli BL21 (DE3), purified (mutants prepared as FIH-1); not shown: His6, N-terminal, cleaved
T3 sequence (Q9NWT6 whole entry E250A): as the sequence (Q9NWT6 whole entry) above, with E250A counted along it

FIH-1 E79A = target: T4, FIH-1 E79A (human, UniProt Q9NWT6 1-349, Glu79 replaced with Ala); experiment: as above
T4 construct: also called Glu79 replaced with Ala; source: E. coli BL21 (DE3), purified (mutants prepared as FIH-1); not shown: His6, N-terminal, cleaved
T4 sequence (Q9NWT6 whole entry E79A): as the sequence (Q9NWT6 whole entry) above, with E79A counted along it

FIH-1 D248A = target: T5, FIH-1 D248A (human, UniProt Q9NWT6 1-349, Asp248 replaced with Ala); experiment: as above
T5 construct: also called Asp248 replaced with Ala (negative control); source: E. coli BL21 (DE3), purified (mutants prepared as FIH-1); not shown: His6, N-terminal, cleaved
T5 sequence (Q9NWT6 whole entry D248A): as the sequence (Q9NWT6 whole entry) above, with D248A counted along it

FIH-1 N171A = target: T6, FIH-1 N171A (human, UniProt Q9NWT6 1-349, Asn171 replaced with Ala); experiment: as above
T6 construct: also called Asn171 replaced with Ala; source: E. coli BL21 (DE3), purified (mutants prepared as FIH-1); not shown: His6, N-terminal, cleaved
T6 sequence (Q9NWT6 whole entry N171A): as the sequence (Q9NWT6 whole entry) above, with N171A counted along it

FIH-1 E29A = target: T7, FIH-1 E29A (human, UniProt Q9NWT6 1-349, Glu29 replaced with Ala); experiment: as above
T7 construct: also called Glu29 replaced with Ala (negative control); source: E. coli BL21 (DE3), purified (mutants prepared as FIH-1); not shown: His6, N-terminal, cleaved
T7 sequence (Q9NWT6 whole entry E29A): as the sequence (Q9NWT6 whole entry) above, with E29A counted along it

FIH-1 Y71A = target: T8, FIH-1 Y71A (human, UniProt Q9NWT6 1-349, Tyr71 replaced with Ala); experiment: as above
T8 construct: also called Tyr71 replaced with Ala; source: E. coli BL21 (DE3), purified (mutants prepared as FIH-1); not shown: His6, N-terminal, cleaved
T8 sequence (Q9NWT6 whole entry Y71A): as the sequence (Q9NWT6 whole entry) above, with Y71A counted along it

FIH-1 K75A = target: T9, FIH-1 K75A (human, UniProt Q9NWT6 1-349, Lys75 replaced with Ala); experiment: as above
T9 construct: also called Lys75 replaced with Ala; source: E. coli BL21 (DE3), purified (mutants prepared as FIH-1); not shown: His6, N-terminal, cleaved
T9 sequence (Q9NWT6 whole entry K75A): as the sequence (Q9NWT6 whole entry) above, with K75A counted along it

Kd [1]: 3000 ± 600 nM
stoichiometry N [1]: ~0.5
B1: short peptide of Mint3 (93–117) (peptide, UniProt O96018 93-117, looked up)
chain: SQEIADAHGLLSAEAGRDDLLGLLH
notes: The methods say only that mutants/fragments of Mint3 were prepared as Mint3NT (E. coli, C-terminal His6); the results call this a peptide and speak of synthesis for the peptide 78-88, so it may be synthetic

Kd [1]: 650 ± 70 nM
dH relative to Mint3NT [1]: ~0.5
stoichiometry N [1]: ~0.5
B2: Mint3(1–117), N-terminal half of Mint3NT (domain or fragment, human, UniProt O96018 1-117, looked up)
chain: MDFPTISRSPSGPPAMDLEGPRDILVPSEDLTPDSQWDPMPGGPGSLSRMELDESSLQELVQQFEALPGDLVGPSPGGAPCPLHIATGHGLASQEIADAHGLLSAEAGRDDLLGLLH
notes: source: E. coli BL21 (DE3), purified (mutants/fragments prepared as Mint3NT)

Kd [2]: 520 ± 20 nM
B3: Mint3NT, N-terminal fragment (1-214) of Mint3 (domain or fragment, human, UniProt O96018 1-214, looked up)
chain: MDFPTISRSPSGPPAMDLEGPRDILVPSEDLTPDSQWDPMPGGPGSLSRMELDESSLQELVQQFEALPGDLVGPSPGGAPCPLHIATGHGLASQEIADAHGLLSAEAGRDDLLGLLHCEECPPSQTGPEEPLEPAPRLLQPPEDPDEDSDSPEWVEGASAEQEGSRSSSSSPEPWLETVPLVTPEEPPAGAQSPETLASYPAPQEVPGPCDHED
notes: human Mint3 (X11gamma/APBA3), residues 1-214; also called 1-214 (NT); Mint3(1-214); source: E. coli BL21 (DE3), purified (Ni-NTA, SEC; monomer fraction)

binding result (FIH-1 E250A): binds
binding result (FIH-1 E79A): binds
binding result (FIH-1 D248A): binds
dH [1]: -32.2 ± 0.7 kcal/mol
stoichiometry N [1]: 0.48 ± 0.02
binding result (FIH-1 N171A): binds
binding result (FIH-1 E29A): binds
binding result (FIH-1 Y71A): binds
binding result (FIH-1 K75A): binds
B4: Mint3NT, N-terminal fragment (1–214) of Mint3 (domain or fragment, human, UniProt O96018 1-214, looked up)
chain: B3 chain
notes: Mint3 (X11γ/APBA3), human, N-terminal fragment, residues 1-214; Uniformly 15N-labelled (M9 medium) for the NMR titration; No cleavage site is told for the C-terminal His6 tag; also called Mint3(1–214); 15N-Mint3NT; source: E. coli BL21 (DE3), purified (Ni-NTA, SEC; monomer fraction collected)

Kd [1]: 1310 nM
dH [1]: -13.9 kcal/mol
stoichiometry N [1]: ~0.5
B5: Mint3NTmut, Mint3NT (1–214) with the mutations … → AAASAAAGRD (domain or fragment, human, UniProt O96018 1-214, looked up)
chain: B3 chain with G101A, L102A, L103A, E106A
notes: as for B2

Kd [2]: 9000 ± 900 nM
B6: Mint3 fragment (1-92) (domain or fragment, human, UniProt O96018 1-92, looked up)
chain: MDFPTISRSPSGPPAMDLEGPRDILVPSEDLTPDSQWDPMPGGPGSLSRMELDESSLQELVQQFEALPGDLVGPSPGGAPCPLHIATGHGLA
notes: human Mint3 (X11gamma/APBA3), residues 1-92; source: E. coli BL21 (DE3), purified (mutants/fragments of Mint3 prepared as Mint3NT)

stoichiometry N [1]: ~0.5
B7: Mint3 fragment (1–92) (domain or fragment, human, UniProt O96018 1-92, looked up)
chain: B6 chain
notes: as for B2
